From patent US20100272644A1 (UNIVERSITY OF THE SCIENCES IN PHILADELPHIA, published 2010)
Ends that are not written are not given here. fluorescein = fluorescein conjugated to the primary amine of the Lys side chain through an MHS ester

Target: defatted HSA (human serum albumin) (human, UniProt P02768 25-609)
Assay: native acrylamide gel shift, fluorescein-labeled peptide (25 pmol) with defatted HSA (100 pmol)

B1: fatty acid-conjugated faTraE peptide (peptide)
peptide: CHLDAHWK(fluorescein)G
modifications: not fully specified (residue 1)
notes: also called fatty acid-modified peptide; HOOC-(CH2)15-S-S-peptide
B1: binds.
